The target in assay [1] is Recombinant Human TACE/ADAM17 Protein (R&D Systems 930-ADB) (human) (UniProt P78536). The experiment in a line: cell-based or functional assay.
In assay [2] the target is T1, Recombinant Human TACE/ADAM17 (Homo sapiens, UniProt P78536).
T1 construct: purchased R&D Systems 930-ADB-010
Description: Cell free TACE/ADAM17 activity. The format is biochemical. The protocol: TACE activity and its inhibition by human AAT (AAT) was performed with Recombinant Human TACE/ADAM17 kit (930-ADB and ES003, R&D Systems) in black 96-well immuno plates (437111, ThermoFisher Scientific). The enzymatic activity of TACE/ADAM17 was measured by mixing 0.005 μg of rhTACE with 10 μM of Mca-PLAQAV-Dpa-RSSSR-NH2 fluorogenic peptide substrate III in assay buffer (25 mM Tris, 2.5 μM ZnCl2, 0.005% Brij-35 (w/v), pH 9.0) to a final volume of 100 μl. AAT (Sigma Aldrich, batch A6150) was resuspended in water (vehicle), control TACE/ADAM17 activity was assessed in presence of the vehicle (amount used for AAT 100 μM). AAT was added at different concentration (0, 6.25, 12.5, 25, 50 and 100 μM) to assess its dose-dependent inhibition of TACE/ADAM17. All conditions were performed in triplicates. Activity was measured as relative fluorescent unit (RFU) in a kinetic mode (9 time points over 5 min) with a SpectraMax iD3 Microplate Reader (low PMT gain, is exposition, top read at 1 mm, wavelength: excitation 320 nm, emission 405 nm). Bar graph as percentage of control activity was obtained by averaging the values obtained over the 5 min for each of the condition.
TACE activity is assessed according to the manufacturer's instruction (Recombinant Human TACE/ADAM17 kit, 930-ADB, R&D Systems) in kinetic mode, without or with different AAT concentration. All conditions were done in triplicates and are shown as mean±SD (FIGS. 5A, 5B and 5C).
ADAM-17 activity and its inhibition by human peptide 8 was measured with Recombinant Human ADAM-17 kit (Recombinant Human TACE/ADAM17 Protein, CF: 930-ADB-010 and Mca-PLAQAV-Dpa-RSSSR-NH2 Fluorogenic Peptide Substrate:ES003; R&D Systems) in black 96-well immunoplates (437111; Thermo Fisher Scientific). The enzymatic activity of ADAM-17 was measured by mixing 0.005 μg of rhADAM-17 with 10 μM of Mca-PLAQAV-Dpa-RSSSR-NH2 fluorogenic peptide substrate III in assay buffer (25 mM Tris, 2.5 μM ZnCl2, 0.005% Brij-35 (w/v), pH 9.0) to a final volume of 100 μL. Peptide 8 (Syngene) was dissolved in DMSO and diluted to the desired concentration in assay buffer. Control ADAM-17 activity was assessed in the presence of the assay buffer. […] All conditions were performed in triplicate. Activity was measured as relative fluorescent units (RFU) in endpoint mode (5 min) with a SpectraMax iD3 Microplate Reader (automatic PMT gain, wavelengths: excitation 320 nm, emission 405 nm).

T1 sequence (P78536 215-671 limits assumed): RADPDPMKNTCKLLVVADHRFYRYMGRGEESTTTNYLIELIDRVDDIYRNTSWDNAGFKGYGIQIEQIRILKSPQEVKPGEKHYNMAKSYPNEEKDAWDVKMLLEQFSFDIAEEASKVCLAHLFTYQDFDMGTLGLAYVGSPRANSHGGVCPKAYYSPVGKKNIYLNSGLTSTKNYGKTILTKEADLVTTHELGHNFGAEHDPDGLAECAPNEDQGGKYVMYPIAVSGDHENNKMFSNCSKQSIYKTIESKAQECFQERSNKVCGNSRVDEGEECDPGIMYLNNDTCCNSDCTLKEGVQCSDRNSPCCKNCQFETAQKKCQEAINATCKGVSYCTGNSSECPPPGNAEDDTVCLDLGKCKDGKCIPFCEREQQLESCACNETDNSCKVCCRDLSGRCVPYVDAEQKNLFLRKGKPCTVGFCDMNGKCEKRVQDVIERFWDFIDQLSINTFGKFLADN
Chain of Recombinant Human TACE/ADAM17 Protein (R&D Systems 930-ADB) (human) (P78536 215-671 limits assumed): as above

As for “human alpha1-antitrypsin (AAT) (Sigma Aldrich, batch A6150) (from UniProt P01009 25-418)”, the IC50 of inhibition of TACE activity, cell-free fluorogenic peptide substrate assay in assay [1] came out at 15.3 µM.
Take “Ac-YRAHQGE-NH2 [Peptide 8, AAT-related peptide derived from immunoregulatory sites on the surface of AAT]”: the “inhibition of ADAM17 activity” value was 36% in assay [2] (peptide 8 at concentration of 100 (μM), experiment 2); 65% in assay [2] (peptide 8 at concentration of 200 (μM), experiment 2); “No significant inhibition” in assay [2] (peptide 8 at concentrations up to 50 μM, vs DMSO).
